Results taken from article PMC7835374 (Nature Communications, 2021).

Biological target: T1, hemagglutinin H3 (A/Victoria/361/2011), trypsin-cleaved HA1/HA2 trimer for crystallization (Influenza A virus A/Victoria/361/2011 …, UniProt A0A097PF39, strain, N-linked glycans (a group 2-specific sugar at position 38 of HA1))
T1 construct: copies: 3 + 3
Assay: crystal structure
Conditions: both partners purified

B1: 3I14 fragment antigen-binding region (Fab) (Fab, V domains shown)
VH: QVQLLESGGGVVQPGRSLRLSCAASGFTFSNYGMHWVRQAPGKGLEWVAIISFDGSKKYYANSVKGRSTISRDNSKNTLSLQMNSLGPEDTALYYCAKLPSPYYFDSRFVWVAASAFHFWGQGILVTVSS
VL: NFMLTQPPSASGTPGQRVTISCSGSSSNIGGNTVHWFQQLPGTAPKLLIYTNSLRPSGVPDRFSGSKSGTSASLAISGLQSEDEADYYCAAWDDSLNGQVFGGGTKLTVL
- binding result: binds

B2: 3I14^D93N Fab (Fab, V domains shown)
VH: QVQLLESGGGVVQPGRSLRLSCAASGFTFSNYGMHWVRQAPGKGLEWVAIISFDGSKKYYANSVKGRSTISRDNSKNTLSLQMNSLGPEDTALYYCAKLPSPYYFDSRFVWVAASAFHFWGQGILVTVSS
VL: LTQPPSASGTPGQRVTISCSGSSSNIGGNTVHWFQQLPGTAPKLLIYTNSLRPSGVPDRFSGSKSGTSASLAISGLQSEDEADYYCAAWDNSLNGQVFGGGTKLTVL
- binding result: binds
